Data as given in patent publication US20230181528A1, “COMPOSITIONS AND METHODS FOR TREATING NEOPLASIA” (The Broad Institute, Inc., priority 2020, published 2023).

Key:
VPS4 ATPase activity = experiment: In vitro assay of ATPase activity of recombinant VPS4A and VPS4B constructs; format: biochemical; conditions: for fold change in turnover number between VPS4A and VPS4B construct with the same tag: VPS4B construct vs VPS4A construct; for Turnover (preliminary turnover number): recombinant tagged constructs, ATPase activity
Excerpt: Active oligomers of VPS4A and VPS4B were achieved through recombinant production and an in vitro assay was used to measure ATPas activity. […] Hcp1 (also known as His6 tag (SEQ ID NO: 32)) and FL (also known as FLAG tag) were used.

[1] = system: PANC0403 pancreatic cancer cell line (VPS4B^loss); experiment: Interferon dose-response curves with VPS4A suppression (CellTiter-Glo); format: cell-based, human; conditions: PANC0403 shVPS4A-2, co-treatment with 1 μM doxycycline, interferon titration for last 3 days
Protocol: (§1) To determine whether interferon treatment cooperate with VPS4A suppression, pancreatic cancer cell lines (KP4, PANC0403 and SNU213) stably expressing the doxycycline-inducible RNAi system against VPS4A (shVPS4A-2) were plated in white-walled 96-well plates at 100˜400 cells per well in 100 μL of 10% FBS-supplemented RPMI-1640 with L-glutamine with or without 1 μM doxycycline. Plates were incubated at 37° C., 5% CO2 for 3 days. […] At the same time, the doxycycline was refreshed. Cells were then incubated for an additional 3 days at 37° C., 5% CO2. Afterwards, 100 μL of premixed CellTiter-Glo (Promega) reagent was added to the wells to lyse cells by shaking the plates at 500 RPM for 10 minutes at room temperature. Luminescence for each well was then measured using an Envision plate reader (Perkin Elmer) to measure cell viability using the ATP-based readout. Luminescence signal for each well was normalized to the average signal from 6 wells treated without interferon for each cell line. These normalized values were then visualized using GraphPad Prism 8.3.0 fitted with a four-parameter log-based non-linear dose-response curve.

[2] = system: SNU213 pancreatic cancer cell line (VPS4B^loss); experiment: as above; format: cell-based, human; conditions: SNU213 shVPS4A-2, co-treatment with 1 μM doxycycline, interferon titration for last 3 days
Protocol: as §1

VPS4B^neutral cell lines = experiment: CRISPR-based cell viability assay with CellTiter-Glo (sgRNAs targeting VPS4A); parameters: species or system human; conditions: YAPC; seven-day CellTiter-Glo; scale 0 (cutting controls) to −1 (pan-essential sgRNAs); read from FIG. 2A
Protocol: For FIG. 2A, CellTiter-Glo viability assays were performed with stably expressing SpCas9 cell lines in 96 well plates. Cells were seeded and infected with sgRNA expressing lentivirus in wells on day 0, and selected with puromycin 24 hours later. Cell titer-Glo viability was read out 7 days after plating and infection. Prior to CellTiter-Glo viability assays, all cell lines were individually optimized for the assay including titrating both cell seeding density and volume of virus used for infection. All lentiviral preps for each sgRNA described below were batch controlled and titrated on three different cell lines representing cell lines with low, medium and high transduction efficiency. Optimal cell seeding densities and viral volumes for infections were then used for all subsequent viability assays using CRISPR. […]
Each assay was required to meet specific quality control metrics. […] For quality control of raw luminescence from CellTiter-Glo, infection efficiency (puro/no puro selection for each sgRNA) was required to be at least 80%, and all replicate wells had to be within 2 standard deviations of the mean for that sgRNA infection. […] SpCas9 activity from each cell line was also required to be greater than 50%, determined by the percent viability reduction of the average of the 3 pan-essential genes (sgPOLR2D, sgSF3B1 and sgKIF11) to negative controls (sgLacZ, sgChr2 and sgAAVS1). […]

Q: What does the source list for “VPS4B-FL: recombinant VPS4B construct with FL (FLAG) tag”?
A: fold change in turnover number between VPS4A and VPS4B construct with the same tag (VPS4 ATPase activity): > 1 fold; Turnover (preliminary turnover number) (VPS4 ATPase activity): 21 s⁻¹

Q: With “VPS4B-Hcp1: recombinant VPS4B construct with Hcp1 tag” as the molecule, how does the “fold change in turnover number between VPS4A and VPS4B construct with the same tag” value (VPS4 ATPase activity) read?
A: > 600 fold

Q: What about the “Turnover (preliminary turnover number)” value (VPS4 ATPase activity) of the same molecule?
A: 33280 s⁻¹

Q: For “interferon-γ: purified recombinant human interferon-γ (PeproTech)”, which “sensitization to VPS4A suppression (6-day cell viability)” value [1] is on record?
A: strongly sensitized

Q: And the “sensitization to VPS4A suppression (6-day cell viability)” value [2]?
A: strongly sensitized

Q: “sgVPS4A2: sgRNA targeting VPS4A intron/exon junction, 5′-GGGCCGCACGAAGTACCTGG (SEQ ID NO: 40) (listed as DNA, chemistry not given here)” was tested. Which “VPS4A dependency score (normalized viability effect)” value (VPS4B^neutral cell lines) did it give?
A: 0.3-0.4

Q: Which “VPS4A dependency score (normalized viability effect)” value (VPS4B^neutral cell lines) does the source give for “sgVPS4A3: sgRNA targeting VPS4A intron/exon junction, 5′-ATTGTTATTCCCCACCCCTG (SEQ ID NO: 41) (listed as DNA, chemistry not given here)” here?
A: 0.25-0.35

B1: VPS4A-Hcp1: recombinant VPS4A construct with Hcp1 tag (protein, UniProt Q9UN37 1-437, looked up)
Vacuolar protein …: MTTSTLQKAIDLVTKATEEDKAKNYEEALRLYQHAVEYFLHAIKYEAHSDKAKESIRAKCVQYLDRAEKLKDYLRSKEKHGKKPVKENQSEGKGSDSDSEGDNPEKKKLQEQLMGAVVMEKPNIRWNDVAGLEGAKEALKEAVILPIKFPHLFTGKRTPWRGILLFGPPGTGKSYLAKAVATEANNSTFFSVSSSDLMSKWLGESEKLVKNLFELARQHKPSIIFIDEVDSLCGSRNENESEAARRIKTEFLVQMQGVGNNNDGTLVLGATNIPWVLDSAIRRRFEKRIYIPLPEEAARAQMFRLHLGSTPHNLTDANIHELARKTEGYSGADISIIVRDSLMQPVRKVQSATHFKKVCGPSRTNPSMMIDDLLTPCSPGDPGAMEMTWMDVPGDKLLEPVVCMSDMLRSLATTRPTVNADDLLKVKKFSEDFGQES
modifications: Hcp1 tag
Q: Which “Turnover (preliminary turnover number)” value (VPS4 ATPase activity) does the source give for B1 here?
A: 53 s⁻¹

B2: VPS4A-FL: recombinant VPS4A construct with FL (FLAG) tag (protein, UniProt Q9UN37 1-437, looked up)
Vacuolar protein …: B1 Vacuolar protein …
modifications: FLAG tag
Q: How did the “Turnover (preliminary turnover number)” value (VPS4 ATPase activity) turn out when B2 was run?
A: 10 s⁻¹
